The test system of data set [1] is bone marrow-derived endothelial cells. Kind of data set: Flow cytometry of CD31hiEMCNhi endothelial cells in EPOC cultures. It is filed as cell-based, mouse. The settings on record: cultures of EPOCs. As to the method: Femur and tibia were dissected from mutant mice and control groups after removing surrounding connective tissues. The metaphysis region and diaphysis regions of bone was crushed in Hanks Balanced Salt Solution (Life Technologies) containing 10 mM HOPES (pH 7.2) (CellGro) and enzymatically digested with 2.5 mg/mL Collagenase A (Roche) and 1 unit/mL Dispase II (Roche) for 15 minutes at 37° C. under gentle agitation. The resulting cell suspensions were filtered (40 μm), washed using PBS (pH 7.2) containing 0.5% BSA (Fraction V) and 2 mM EDTA. […] After washing, cells were resuspended in PBS (pH 7.2) with 2 mM EDTA and 1 μg/mL 4-6,Diamidino-2-Phenylindole (DAPI) (live/dead exclusion) for analysis on an LSRII flow cytometer system (BD Biosciences) cytometer and analyzed using FlowJo software (TreeStar). […]
Mouse bone marrow derived late-stage endothelial progenitor outgrowth cells (EPOCs) were obtained from BioChain (7030031) and cultured in growth medium (BioChain Z7030035) as described previously (Xie et al. 2014). […] The cell numbers were quantified by counting a centered microscope field per each filter (5 wells for each condition). […] The width of the wound area was quantitatively evaluated using ImageJ (see website at rsb.info.uih.gov/ij/download.html). […]
For orientation: In flow cytometry, cells or beads pass a laser one at a time.

In data set [2] the test system is CD31^hiEMCN^hi endothelium. Kind of data set: Flow cytometry of skeletal CD31hiEMCNhi endothelium in femurs after IV injection. The format is in vivo, mouse. The conditions noted are these: 8-week-old B6 mice, twice weekly IV 1 mg/kg, 21 days, femur; 1 mg/kg. As to the method:
Femur and tibia were dissected from mutant mice and control groups after removing surrounding connective tissues. The metaphysis region and diaphysis regions of bone was crushed in Hanks Balanced Salt Solution (Life Technologies) containing 10 mM HOPES (pH 7.2) (CellGro) and enzymatically digested with 2.5 mg/mL Collagenase A (Roche) and 1 unit/mL Dispase II (Roche) for 15 minutes at 37° C. under gentle agitation. The resulting cell suspensions were filtered (40 μm), washed using PBS (pH 7.2) containing 0.5% BSA (Fraction V) and 2 mM EDTA. After washing, equal numbers of cells per mouse were blocked with Purified Rat Anti-Mouse CD16/CD32 (BD Biosciences) for 30 min on ice, then stained with APC-conjugated EMCN antibody (ebioscience 50-5851-80), PE-conjugated CD31 (ebioscience 12-0311-81). FITC-conjugated CD45 (Tonbo 35-0451), APC/Cy7-conjugated Ter119 (Biolegend 116223) and PerCP-Cy5.5-conjugated CD146 (BD Biosciences 562231) for 45 min on ice. After washing, cells were resuspended in PBS (pH 7.2) with 2 mM EDTA and 1 μg/mL 4-6,Diamidino-2-Phenylindole (DAPI) (live/dead exclusion) for analysis on an LSRII flow cytometer system (BD Biosciences) cytometer and analyzed using FlowJo software (TreeStar). Cell sorting was performed with a FACS Aria II SORP cell sorter (Becton Dickinson) at Weill Cornell Medical College, with exclusion of DAPI^+ cells and doublets. […]

Data set [3] has as its system open femoral midshaft fracture. Kind of data set: Open femoral midshaft fracture model, systemic IV SLIT3. It is filed as in vivo, mouse. On the procedure: Micro-CT (μCT) analysis was conducted on a Scanco Medical μCT 35 system at the Citigroup Biomedical Imaging Core using the previously described parameters. (Shim et al. 2013). μCT analysis was performed by an investigator blinded to the genotypes of the animals under analysis.
For histological analysis, hindlimbs were dissected from the mice or human callus, fixed in 10% neutral buffered formalin for 24-48 hours, and decalcified by daily changes of 15% tetrasodium EDTA for 2 weeks. Tissues were dehydrated by passage through an ethanol series, cleared twice in xylene, embedded in paraffin, and sectioned at 7 μm thickness. Decalcified sections were stained with hematoxylin and eosin (H&E). We incubated the slides with primary antibody to mouse EMCN (sc-65495, Santa Cruz, 1:200) and human Slit3 (ab198726, Abcam 1:50) at 37° C. for 2 h and subsequently used a horseradish peroxidase-streptavidin detection system (Dako) to detect the immunoreactivity. The number and volume of positively stained vessels was measured in four random visual fields of callus in 3 sequential sections per mouse in each group.
All surgical procedures were performed under isoflurane (1-4%) anesthesia via nosecone. Surgical sites were sterilized using a betadine/iodide/isopropanol prep after hair removal by a clipper with a #40 blade and depilatory cream (Nair). After surgery, the visceral lining or muscle was sutured with absorbable Ethicon vicryl sutures (VWR, Cat #95057-014) prior to closing the skin with wound clips that were then removed 2 weeks post-operatively. Animals received intraperitoneal Buprenex (0.5 mg/kg) and oral Meloxicam (2.0 mg/kg) as analgesia prior to surgery and once every 24 hours post-surgery for 3 days. All surgical procedures are approved by the IACUC of Weill Cornell Medical College (Protocol #2012-0005).
Bone fracture was done following previously described protocols with modifications (Bradaschia-Correa et al. 2017). In brief, after anesthesia and surgical site sterilization, an incision above the right anterolateral femur was made. The femur and patella were then exposed, and a 27-gauge syringe needle was inserted parallel with the long axis of the femur through the patellar groove into the marrow cavity. The needle was then removed, and a single cut was made in the middle of the femoral diaphysis using a dremel saw with a diamond thin cutting wheel (VWR, Cat #100230-724). A blunt 25-gauge needle was then inserted into the marrow space through the hole made in the patella to stabilize the fracture. The needle was then trimmed to avoid it from projecting into the patella-femoral joint space. Muscle was then placed over the osteotomy site and stitched with absorbable sutures prior to closing the skin with wound clips.
Alternatively, the gelatin sponge was manually soaked with SLITS (300 ug/ml in PBS) or vehicle for 1 hour on ice and immediately placed to the surgical fracture area. All animals were euthanized by CO2 at time points indicated.
All bones were tested to failure using four-point bending on a precision electromagnetic-based load frame (EnduraTEC ELF 3200, Bose Corporation, Minnetonka, MC). Femurs were placed with the posterior surface on the lower supports, spaced 9.9 mm apart. The upper supports were spaced 3.3 ram. Load was applied at a rate of 0.1 mm/s until failure occurred. The failure load (N) and bending stiffness […] within the elastic range were calculated from the force-displacement curves and the four-point dimensions.

In data set [4] the test system is non-skeletal vasculature. The conditions noted are these: mouse, in vivo, iv.
[5] abbreviates: IV twice weekly, 21 days after fracture.
The mark [6] stands for this setting: biomechanical testing, 21 days after fracture.

“Also recorded” adds a separate entry of the source.

B1: SLIT3: SLIT3 recombinant protein (R&D); secreted ligand of ROBO receptors (protein, UniProt O75094 34-1523, looked up)
Slit homolog 3 protein: CPTKCTCSAASVDCHGLGLRAVPRGIPRNAERLDLDRNNITRITKMDFAGLKNLRVLHLEDNQVSVIERGAFQDLKQLERLRLNKNKLQVLPELLFQSTPKLTRLDLSENQIQGIPRKAFRGITDVKNLQLDNNHISCIEDGAFRALRDLEILTLNNNNISRILVTSFNHMPKIRTLRLHSNHLYCDCHLAWLSDWLRQRRTVGQFTLCMAPVHLRGFNVADVQKKEYVCPAPHSEPPSCNANSISCPSPCTCSNNIVDCRGKGLMEIPANLPEGIVEIRLEQNSIKAIPAGAFTQYKKLKRIDISKNQISDIAPDAFQGLKSLTSLVLYGNKITEIVKGLFDGLVSLQLLLLNANKINCLRVNTFQDLQNLNLLSLYDNKLQTISKGLFAPLQSIQTLHLAQNPFVCDCHLKWLADYLQDNPIETSGARCSSPRRLANKRISQIKSKKFRCSGSEDYRSRFSSECFMDLVCPEKCRCEGTIVDCSNQKLVRIPSHLPEYVTDLRLNDNEVSVLEATGIFKKLPNLRKINLSNNKIKEVREGAFDGAASVQELMLTGNQLETVHGRVFRGLSGLKTLMLRSNLIGCVSNDTFAGLSSVRLLSLYDNRITTITPGAFTTLVSLSTINLLSNPFNCNCHLAWLGKWLRKRRIVSGNPRCQKPFFLKEIPIQDVAIQDFTCDGNEESSCQLSPRCPEQCTCMETVVRCSNKGLRALPRGMPKDVTELYLEGNHLTAVPRELSALRHLTLIDLSNNSISMLTNYTFSNMSHLSTLILSYNRLRCIPVHAFNGLRSLRVLTLHGNDISSVPEGSFNDLTSLSHLALGTNPLHCDCSLRWLSEWVKAGYKEPGIARCSSPEPMADRLLLTTPTHRFQCKGPVDINIVAKCNACLSSPCKNNGTCTQDPVELYRCACPYSYKGKDCTVPINTCIQNPCQHGGTCHLSDSHKDGFSCSCPLGFEGQRCEINPDDCEDNDCENNATCVDGINNYVCICPPNYTGELCDEVIDHCVPELNLCQHEAKCIPLDKGFSCECVPGYSGKLCETDNDDCVAHKCRHGAQCVDTINGYTCTCPQGFSGPFCEHPPPMVLLQTSPCDQYECQNGAQCIVVQQEPTCRCPPGFAGPRCEKLITVNFVGKDSYVELASAKVRPQANISLQVATDKDNGILLYKGDNDPLALELYQGHVRLVYDSLSSPPTTVYSVETVNDGQFHSVELVTLNQTLNLVVDKGTPKSLGKLQKQPAVGINSPLYLGGIPTSTGLSALRQGTDRPLGGFHGCIHEVRINNELQDFKALPPQSLGVSPGCKSCTVCKHGLCRSVEKDSVVCECRPGWTGPLCDQEARDPCLGHRCHHGKCVATGTSYMCKCAEGYGGDLCDNKNDSANACSAFKCHHGQCHISDQGEPYCLCQPGFSGEHCQQENPCLGQVVREVIRRQKGYASCATASKVPIMECRGGCGPQCCQPTRSKRRKYVFQCTDGSSFVEEVERHLECGCLACS
In the case of B1, in data set [1], the “acquisition of CD31hiEMCNhi surface immunophenotype in culture” value is reported as “enhanced the acquisition; also recorded: induces production”. Further, the “levels of skeletal CD31hiEMCNhi endothelium in vivo” value in data set [2] is “increased levels; also recorded: induces production”. Moreover, the “bone fracture healing (μCT and histological analysis)” value in data set [3] (5-week-old male mice, IV twice weekly, 21 days) is listed as “enhancement of bone fracture healing; also recorded: enhances bone-fracture healing”. For the same molecule, in data set [3] (setting [5]), the “bone volume in the callus area relative to controls” value is listed as ~2 fold and the “vascularization of fracture area including CD31hiEMCNhi endothelium” value was “increased”. Besides, in data set [3] (setting [6]), the “maximum load sustained by the fracture callus” value is reported as “significantly enhanced” and the “stiffness of the fracture callus” value is recorded as “significantly enhanced”. Further, the brain ultrastructure entry in data set [4] was “no changes”.

Values taken from US20200397860A1, “SLIT AND BONE GROWTH MODULATION” (Cornell University, priority 2018, published 2020).
